The subject of one data set is wild-type CHO cells. As to conditions: Krieger et al. (1989); cited from earlier work.
In the next data set the test system is ldlD cells. As to conditions: Krieger et al. (1989); cited from earlier work.
Data set [1] has as its system UDP-galNAc/UDP-glcNAc interconversion. As to the kind of experiment: UDP-GalNAc activity of GALE alleles expressed in ldlD cells. It is filed as biochemical. As to conditions: enzyme expressed in ldlD cells, FIG. 6. The protocol:
(§1) In Vitro Assay for UDP-GalNAc: The radioactive method for detecting conversion of UDP-GalNAc to UDP-GIcNAc was performed essentially as described above for UDP-Gal, with the following assay components per 25 μl of reaction: 8.75 μl of premix (0.04 μCi of UDP-[^14C]GalNAc (ICN), 1.89 mM cold UDP-GalNAc, 28.6 mM pyruvate, 286 mM glycine, pH 8.7, 5 μl of 20 mM NAD), and 11.25 μl of protein diluted in Johnston buffer. Appropriate amounts of protein were used in each reaction to stay within the predetermined linear range of the assay. Assays were performed as for UDP-Gal, with a TLC run-time of 10 h and quantified as described for UDP-Gal.
(§2) For analysis by HPLC, protein samples were diluted with glycine buffer (100 mM glycine, pH 8.7) to a final volume of 7.5 μl. For each reaction, 2.5 μl of 20 mM NAD+, and 2.5 il of premix (3.3 mM UDP-GalNAc, and 500 mM glycine, pH 8.7) were added, for a final reaction volume of 12.5 μl. Assay mixtures were incubated at 37° C. for 30 min before stopping by addition of 2.5 volumes of ice-cold 100% methanol. Samples were vortexed, spun and dried as for UDP-Gal HPLC assays, and resuspended in 750 μl ddH2O. The suspension was added to an 0.2 μm nylon micro-spin filter tube, and spun for approximately 2.5 min at 4000 g. An aliquot of 20 μl was then analyzed by HPLC.
In this experiment, ldlD cells expressing WThGALE were used as a positive control, and ldlD cells expressing backbone alone were used as a negative control.

For data set [2] the test system is unchanged. As to the kind of experiment: In vitro assay for UDP-GalNAc, purified enzymes. Type of data set: biochemical. As to conditions: purified enzyme expressed in Pichia pastoris, FIG. 1. The protocol:
as §1, §2
HPLC Analysis of Carbohydrates: Carbohydrate detection by HPLC was based on the methods of Smits (1998) and de Koning (1992). HPLC analysis was carried out on a DX600 HPLC system (Dionex, Sunnyvale, CA) consisting of a Dionex AS50 autosampler, a Dionex GP50 gradient pump, and a Dionex ED50 electrochemical detector. Carbohydrates were separated on a CarboPac PA10 column, 250×4 mm, with a CarboPac PA10 guard column, 50×4 mm, placed before the analysis column, and a borate trap placed after. […]
The ED50 detector consisted of a gold electrode and a pH-Ag/AgCl reference electrode for signal detection by integrated amperometry. […] Carbohydrates were quantified using PeakNet software version 6.4 (Dionex) and based on integration of peak areas with comparison to standards. […]

Data set [3] deals with UDP-gal/UDP-glc interconversion. Put plainly: In vitro UDP-gal activity assays on protein extracts from transfected ldlD cells. It is filed as biochemical. As to conditions: protein extracts of stably transfected ldlD cells, CMV promoter, FIG. 3 and 5. The protocol: (§3) In Vitro Assays for UDP-Gal: Aliquots of each purified enzyme from Example lwere stored in 50% glycerol with 4 mM NAD+ in liquid nitrogen, while crude extracts were stored at −80° C. until needed. All crude extracts were passed through Micro biospin 30 columns (Biorad) before being assayed for enzyme activity. Assays to determine the level of GALE activity with respect to UDP-Gal were performed essentially as previously described in Thoden et al. J Biol Chem Jul 26; 277(30):27528-34 (2002). […] For radioactive assay, conversion of UDP-Gal to UDP-Glc was measured in a 12.5-μl reaction containing 2.5 μl of premix (0.05 μCi of UDP-[^14C]Gal (Amersham Biosciences), […] cold UDP-Gal, 0.2 mM glycine buffer, pH 8.7), 2.5 μl of 20 mM NAD+, and 7.5 μl of purified protein diluted in Johnston buffer (20 mM HEPES/KOH, pH 7.5, 1 mM dithiothreitol, and 0.3 mg of bovine serum albumin/ml). Appropriate amounts of protein were used in each reaction in order to stay within the predetermined linear range of the assay. Reactions were incubated at 37° C for 30 min and were stopped by boiling at 100° C. for 10 min. […] Images were visualized with a Typhoon 9200 variable mode imager and quantified using ImageQuant software (both from Amersham Biosciences). Percent conversion was determined by dividing the product signal by the total signal and multiplying by 100. […] A 15 μl aliquot was then analyzed by HPLC. […]

The test system is the same in data set [4]. Put plainly: In vitro assay for UDP-Gal, purified enzymes. Type of data set: biochemical. As to conditions: purified enzyme expressed in Pichia pastoris, FIG. 1. The protocol: as §3

Entries after “also recorded” stand apart in the source; their conditions may differ. Where only a bound is given, the exact number is not on record here.

Turning to `O=C[C@H](O)[C@@H](O)[C@@H](O)[C@H](O)CO` [galactose], the “galactose levels with no apparent toxicity” value in the data set on wild-type CHO cells was at most 10 mM. For the same molecule, in the data set with ldlD cells, the “galactose concentration at which cells experience toxicity” value is “greater than 75 μM”.

B1: WTeGALE: wild-type E. coli GALE (UDP-galactose 4-epimerase) (protein)
chain: MRVLVTGGSGYIGSHTCVQLLQNGHDVIILDNLCNSKRSVLPVIERLGGKHPTFVEGDIRNEALMTEILHDHAIDTVIHFAGLKAVGESVQKPLEYYDNNVNGTLRLISAMRAANVKNFIFSSSATVYGDQPKIPYVESFPTGTPQSPYGKSKLMVEQILTDLQKAQPDWSIALLRYFNPVGAHPSGDMGEDPQGIPNNLMPYIAQVAVGRRDSLAIFGNDYPTEDGTGVRDYIHVMDLADGHVVAMEKLANKPGVHIYNLGAGVGNSVLDVVNAFSKACGKPVNYHFAPRREGDLPAYWADASKADRELNWRVTRTLDEMAQDTWHWQSRHPQGYPD
modifications: Eschesichia Coli
For the molecule B1, the “activity with regard to UDP-galNAc/UDP-glcNAc interconversion” value in data set [1] is given as “not significantly active”. The “ability to interconvert UDP-GalNAc and UDP-GlcNAc” value in data set [2] was “no ability”. Besides, the “activity with regard to UDP-gal/UDP-glc interconversion” value in data set [3] is “active”.

B2: WThGALE: wild type human GALE (UDP-galactose 4-epimerase) (protein, UniProt Q14376 1-348, looked up)
UDP-glucose 4-epimerase: MAEKVLVTGGAGYIGSHTVLELLEAGYLPVVIDNFHNAFRGGGSLPESLRRVQELTGRSVEFEEMDILDQGALQRLFKKYSFMAVIHFAGLKAVGESVQKPLDYYRVNLTGTIQLLEIMKAHGVKNLVFSSSATVYGNPQYLPLDEAHPTGGCTNPYGKSKFFIEEMIRDLCQADKTWNAVLLRYFNPTGAHASGCIGEDPQGIPNNLMPYVSQVAIGRREALNVFGNDYDTEDGTGVRDYIHVVDLAKGHIAALRKLKEQCGCRIYNLGTGTGYSVLQMVQAMEKASGKKIPYKVVARREGDVAACYANPSLAQEELGWTAALGLDRMCEDLWRWQKQNPSGFGTQA
Consider B2, for which the “UDP-Gal activity (UDP-Gal/UDP-Glc interconversion)” value in data set [4] is recorded as “well”. In data set [1], the “activity with regard to UDP-galNAc/UDP-glcNAc interconversion” value is “very active”. In addition, the “ability to interconvert UDP-GalNAc and UDP-GlcNAc” value in data set [2] was “well”.

B3: C307YhGALE: wild type hGALE except a tyrosine residue has been substituted for cysteine at position 307 (protein)
chain: MAEKVLVTGGAGYIGSHTVLELLEAGYLPVVIDNFHNAFRGGGSLPESLRRVQELTGRSVEFEEMDILDQGALQRLFKKYSFMAVIHFAGLKAVGESVQKPLDYYRVNLTGTIQLLEIMKAHGVKNLVFSSSATVYGNPQYLPLDEAHPTGGCTNPYGKSKFFIEEMIRDLCQADKTWNAVLLRYFNPTGAHASGCIGEDPQGIPNNLMPYVSQVAIGRREALNVFGNDYDTEDGTGVRDYIHVVDLAKGHIAALRKLKEQCGCRIYNLGTGTGYSVLQMVQAMEKASGKKIPYKVVARREGDVAAYYANPSLAQEELGWTAALGLDRMCEDLWRWQKQNPSGFGTQA
modifications: Human polypeptide
Consider B3, for which the “UDP-Gal activity (UDP-Gal/UDP-Glc interconversion)” value in data set [4] was “maintains wildtype levels”. Also, the “activity with regard to UDP-galNAc/UDP-glcNAc interconversion” value in data set [1] was “reduced to levels close to those seen in ldld cells expressing backbone alone; also recorded: reduced to levels close to those seen in IdiD cells expressing backbone alone”; in data set [1] (listed as C307Y hGALE), “not significantly active”. The “UDP-GalNAc activity, % of that seen in WT hGALE” value in data set [2] is reported as 2.30%. Further, the “activity with regard to UDP-gal/UDP-glc interconversion” value in data set [3] was “active”.

The values above are taken from patent US20050112723A1, “Mammalian cell lines specifically deficient in O-linked glycosylation” (priority 2003, published 2005).
